B1: IgG1-CD137-009-HC7LC2-FEAR (antibody)
heavy: EVQLVESGGGLVQPGRSLRLSCTASGFSLNDYWMSWVRQAPGKGLEWVGYIDVGGSLYYAASVKGRFTISRDDSKSIAYLQMNSLKTEDTAVYYCARGGLTYGFDLWGQGTLVTVSSASTKGPSVFPLAPSSKSTSGGTAALGCLVKDYFPEPVTVSWNSGALTSGVHTFPAVLQSSGLYSLSSVVTVPSSSLGTQTYICNVNHKPSNTKVDKRVEPKSCDKTHTCPPCPAPEFEGGPSVFLFPPKPKDTLMISRTPEVTCVVVAVSHEDPEVKFNWYVDGVEVHNAKTKPREEQYNSTYRVVSVLTVLHQDWLNGKEYKCKVSNKALPAPIEKTISKAKGQPREPQVYTLPPSREEMTKNQVSLTCLVKGFYPSDIAVEWESNGQPENNYKTTPPVLDSDGSFFLYSRLTVDKSRWQQGNVFSCSVMHEALHNHYTQKSLSLSPG
light: DIVMTQSPSSLSASVGDRVTITCQASEDISSYLAWYQQKPGKAPKRLIYGASDLASGVPSRFSASGSGTDYTFTISSLQPEDIATYYCHYYATISGLGVAFGGGTKVEIKRTVAAPSVFIFPPSDEQLKSGTASVVCLLNNFYPREAKVQWKVDNALQSGNSQESVTEQDSKDSTYSLSSTLTLSKADYEKHKVYACEVTHQGLSSPVTKSFNRGEC
B2: bsIgG1-b12-FERL/CD137-009-HC7LC2-FEAR (bispecific antibody)
heavy 1: QVQLVQSGAEVKKPGASVKVSCQASGYRFSNFVIHWVRQAPGQRFEWMGWINPYNGNKEFSAKFQDRVTFTADTSANTAYMELRSLRSADTAVYYCARVGPYSWDDSPQDNYYMDVWGKGTTVIVSSASTKGPSVFPLAPSSKSTSGGTAALGCLVKDYFPEPVTVSWNSGALTSGVHTFPAVLQSSGLYSLSSVVTVPSSSLGTQTYICNVNHKPSNTKVDKRVEPKSCDKTHTCPPCPAPEFERGPSVFLFPPKPKDTLMISRTPEVTCVVVDVSHEDPEVKFNWYVDGVEVHNAKTKPREEQYNSTYRVVSVLTVLHQDWLNGKEYKCKVSNKALPAPIEKTISKAKGQPREPQVYTLPPSREEMTKNQVSLTCLVKGFYPSDIAVEWESNGQPENNYKTTPPVLDSDGSFLLYSKLTVDKSRWQQGNVFSCSVMHEALHNHYTQKSLSLSPG
light 1: EIVLTQSPGTLSLSPGERATFSCRSSHSIRSRRVAWYQHKPGQAPRLVIHGVSNRASGISDRFSGSGSGTDFTLTITRVEPEDFALYYCQVYGASSYTFGQGTKLERKRTVAAPSVFIFPPSDEQLKSGTASVVCLLNNFYPREAKVQWKVDNALQSGNSQESVTEQDSKDSTYSLSSTLTLSKADYEKHKVYACEVTHQGLSSPVTKSFNRGEC
heavy 2: EVQLVESGGGLVQPGRSLRLSCTASGFSLNDYWMSWVRQAPGKGLEWVGYIDVGGSLYYAASVKGRFTISRDDSKSIAYLQMNSLKTEDTAVYYCARGGLTYGFDLWGQGTLVTVSSASTKGPSVFPLAPSSKSTSGGTAALGCLVKDYFPEPVTVSWNSGALTSGVHTFPAVLQSSGLYSLSSVVTVPSSSLGTQTYICNVNHKPSNTKVDKRVEPKSCDKTHTCPPCPAPEFEGGPSVFLFPPKPKDTLMISRTPEVTCVVVAVSHEDPEVKFNWYVDGVEVHNAKTKPREEQYNSTYRVVSVLTVLHQDWLNGKEYKCKVSNKALPAPIEKTISKAKGQPREPQVYTLPPSREEMTKNQVSLTCLVKGFYPSDIAVEWESNGQPENNYKTTPPVLDSDGSFFLYSRLTVDKSRWQQGNVFSCSVMHEALHNHYTQKSLSLSPG
light 2: DIVMTQSPSSLSASVGDRVTITCQASEDISSYLAWYQQKPGKAPKRLIYGASDLASGVPSRFSASGSGTDYTFTISSLQPEDIATYYCHYYATISGLGVAFGGGTKVEIKRTVAAPSVFIFPPSDEQLKSGTASVVCLLNNFYPREAKVQWKVDNALQSGNSQESVTEQDSKDSTYSLSSTLTLSKADYEKHKVYACEVTHQGLSSPVTKSFNRGEC
notes: also called bsIgG1-b12-FERL/CD137-HC7LC2-FEAR; bsIgG1-b12-FERLxCD137-009-HC7LC2-FEAR
B3: bsIgG1-b12-FERL/b12-FEAR (bispecific antibody)
heavy 1: QVQLVQSGAEVKKPGASVKVSCQASGYRFSNFVIHWVRQAPGQRFEWMGWINPYNGNKEFSAKFQDRVTFTADTSANTAYMELRSLRSADTAVYYCARVGPYSWDDSPQDNYYMDVWGKGTTVIVSSASTKGPSVFPLAPSSKSTSGGTAALGCLVKDYFPEPVTVSWNSGALTSGVHTFPAVLQSSGLYSLSSVVTVPSSSLGTQTYICNVNHKPSNTKVDKRVEPKSCDKTHTCPPCPAPEFERGPSVFLFPPKPKDTLMISRTPEVTCVVVDVSHEDPEVKFNWYVDGVEVHNAKTKPREEQYNSTYRVVSVLTVLHQDWLNGKEYKCKVSNKALPAPIEKTISKAKGQPREPQVYTLPPSREEMTKNQVSLTCLVKGFYPSDIAVEWESNGQPENNYKTTPPVLDSDGSFLLYSKLTVDKSRWQQGNVFSCSVMHEALHNHYTQKSLSLSPG
heavy 2: QVQLVQSGAEVKKPGASVKVSCQASGYRFSNFVIHWVRQAPGQRFEWMGWINPYNGNKEFSAKFQDRVTFTADTSANTAYMELRSLRSADTAVYYCARVGPYSWDDSPQDNYYMDVWGKGTTVIVSSASTKGPSVFPLAPSSKSTSGGTAALGCLVKDYFPEPVTVSWNSGALTSGVHTFPAVLQSSGLYSLSSVVTVPSSSLGTQTYICNVNHKPSNTKVDKRVEPKSCDKTHTCPPCPAPEFEGGPSVFLFPPKPKDTLMISRTPEVTCVVVAVSHEDPEVKFNWYVDGVEVHNAKTKPREEQYNSTYRVVSVLTVLHQDWLNGKEYKCKVSNKALPAPIEKTISKAKGQPREPQVYTLPPSREEMTKNQVSLTCLVKGFYPSDIAVEWESNGQPENNYKTTPPVLDSDGSFFLYSRLTVDKSRWQQGNVFSCSVMHEALHNHYTQKSLSLSPG
light: EIVLTQSPGTLSLSPGERATFSCRSSHSIRSRRVAWYQHKPGQAPRLVIHGVSNRASGISDRFSGSGSGTDFTLTITRVEPEDFALYYCQVYGASSYTFGQGTKLERKRTVAAPSVFIFPPSDEQLKSGTASVVCLLNNFYPREAKVQWKVDNALQSGNSQESVTEQDSKDSTYSLSSTLTLSKADYEKHKVYACEVTHQGLSSPVTKSFNRGEC
notes: also called b12-FERLxb12-FEAR; bsIgG1-ctrl-b12-FERL/b12-FEAR
B4: IgG1-EpCAM-A37-FERL (antibody)
heavy: not shown
light: EIELTQSPGTLSLSPGERATLSCRASQTISNNYLAWYQQKRGQAPRLLIYAASSRATGIPDRFSGTGSGTDFTLTISRLEPEDFAVYYCAQGELYPRQFGGGTKLEIKRTVAAPSVFIFPPSDEQLKSGTASVVCLLNNFYPREAKVQWKVDNALQSGNSQESVTEQDSKDSTYSLSSTLTLSKADYEKHKVYACEVTHQGLSSPVTKSFNRGEC

Legend:
[1] = target: T1, neonatal Fc receptor (FcRn), His-tagged (SinoBiological, cat. no. CT009-H08H-B) (UniProt P55899 24-297); assay: SPR kinetics assay at pH 6.0; His-tagged FcRn captured on anti-His chip, antibody 0-500 nM; mean of three experiments
Experimental: (§1) In a separate experiment, binding to neonatal Fc receptor (FcRn) was tested by SPR, using a kinetics assay with the following changes to the methods described above. […] Experiments were performed three times at pH 6.0 (under acidic conditions, at which IgG binds to FcRn) and two times at pH 7.4 (binding to IgG is not expected at this pH).

[2] = target: T1, neonatal Fc receptor (FcRn), His-tagged …; assay: SPR kinetics assay at pH 6.0; His-tagged FcRn captured on anti-His chip, antibody 0-500 nM
Experimental: as §1

[3] = target: T2, FcγRIIa-R131 (human, UniProt P12318 34-218, limits assumed); assay: SPR (Biacore 8K); His-tagged FcγR captured on anti-His chip
T2 construct: Bought His-tagged protein; also called CD32A Protein, Human, Recombinant (167 Arg, His & AVI Tag)
T2 sequence (looked up): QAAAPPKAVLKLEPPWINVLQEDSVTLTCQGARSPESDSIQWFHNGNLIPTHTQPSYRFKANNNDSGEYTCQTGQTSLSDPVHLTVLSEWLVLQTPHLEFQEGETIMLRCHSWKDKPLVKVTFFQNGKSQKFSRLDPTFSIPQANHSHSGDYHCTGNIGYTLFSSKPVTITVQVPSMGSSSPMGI
Experimental: (§2) At the end of each cycle, the surface was regenerated using 10 mM Glycine-HCl pH 1.5 (Cytiva, cat. no. BR100354).

[4] = target: T3, FcγRIIa-H131 (human, UniProt P12318 34-218, limits assumed); assay: as above
T3 construct: Bought His-tagged protein; also called CD32A Protein, Human, Recombinant (167 His, His Tag)
T3 sequence (looked up): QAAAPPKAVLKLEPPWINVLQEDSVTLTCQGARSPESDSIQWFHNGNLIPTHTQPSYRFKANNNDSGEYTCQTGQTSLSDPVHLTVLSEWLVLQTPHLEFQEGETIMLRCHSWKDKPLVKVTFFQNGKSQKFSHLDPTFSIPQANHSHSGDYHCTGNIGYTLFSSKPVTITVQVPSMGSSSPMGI
Experimental: as §2

[5] = target: T4, FcγRIIIa-V158 (human, UniProt P08637 17-208); assay: as above
T4 construct: Bought His-tagged protein
Experimental: as §2

[6] = target: T5, FcγRIIIa-F158 (human, UniProt P08637 17-208); assay: as above
T5 construct: extracellular domain; Bought His-tagged protein
Experimental: as §2

[7] = target: T6, FcγRIIb (human, UniProt P31994 43-217, limits assumed); assay: as above
T6 construct: Bought His-tagged protein; also called CD32B/Fcgr2b Protein, Human, Recombinant (His & AVI Tag)
T6 sequence (looked up): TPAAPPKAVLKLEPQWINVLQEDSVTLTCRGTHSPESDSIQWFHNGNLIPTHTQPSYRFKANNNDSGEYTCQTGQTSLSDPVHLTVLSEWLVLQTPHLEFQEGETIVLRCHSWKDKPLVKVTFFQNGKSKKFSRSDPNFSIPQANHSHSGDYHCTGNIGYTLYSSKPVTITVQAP
Experimental: as §2

[8] = target: T7, FcγRIa (human, UniProt P12314 16-288, limits assumed, biotinylated); assay: as above
T7 construct: Bought His-tagged protein captured on anti-His chip; also called CD64 Protein, Human, Recombinant (His Tag), Biotinylated
Experimental: as §2

[9] = target: T8, full length human EpCAM on cells (human, UniProt P16422 24-314); assay: flow cytometry on DiFi tumor cells
T8 construct: the cell line is named under assay; also called EpCAM on DiFi, HPAF-II and A549 tumor cells; CHO-S cells transfected with full length human EpCAM
T8 sequence: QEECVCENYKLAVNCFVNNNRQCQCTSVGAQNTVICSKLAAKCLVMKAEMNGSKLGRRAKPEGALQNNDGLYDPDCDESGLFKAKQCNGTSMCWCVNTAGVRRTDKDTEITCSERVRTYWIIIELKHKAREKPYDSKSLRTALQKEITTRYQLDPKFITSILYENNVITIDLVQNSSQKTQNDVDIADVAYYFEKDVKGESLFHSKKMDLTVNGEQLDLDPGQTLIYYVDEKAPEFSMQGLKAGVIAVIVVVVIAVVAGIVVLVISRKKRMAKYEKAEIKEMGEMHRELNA
Experimental: Binding to the EpCAM-expressing human tumor cell lines DiFi, HPAF-II and A549 by bivalent EpCAM antibodies or bispecific antibodies carrying one EpCAM-binding arm was analyzed by flow cytometry. […] Next, cells were washed once (A-D) or twice (E) in FACS buffer, re-suspended in 100 μL FACS buffer and analyzed on a BD LSRFortessa FACS (BD Biosciences, USA), Celesta (BD Biosciences, USA) or iQue (Sartorius, Germany). Binding curves were analyzed using non-linear regression (sigmoidal dose-response with variable slope) using GraphPad Prism V7.02 software (GraphPad Software, San Diego, CA, USA).

T1 sequence (P55899 24-297 limits assumed, form in doubt): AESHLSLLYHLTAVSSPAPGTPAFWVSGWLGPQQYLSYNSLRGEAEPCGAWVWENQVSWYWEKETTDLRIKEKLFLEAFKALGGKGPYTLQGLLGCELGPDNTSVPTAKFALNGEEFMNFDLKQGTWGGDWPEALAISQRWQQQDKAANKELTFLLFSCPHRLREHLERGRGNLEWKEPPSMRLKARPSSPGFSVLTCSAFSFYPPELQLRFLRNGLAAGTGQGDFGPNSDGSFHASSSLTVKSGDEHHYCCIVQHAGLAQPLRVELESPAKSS
T4 sequence (P08637 17-208 F176V limits assumed): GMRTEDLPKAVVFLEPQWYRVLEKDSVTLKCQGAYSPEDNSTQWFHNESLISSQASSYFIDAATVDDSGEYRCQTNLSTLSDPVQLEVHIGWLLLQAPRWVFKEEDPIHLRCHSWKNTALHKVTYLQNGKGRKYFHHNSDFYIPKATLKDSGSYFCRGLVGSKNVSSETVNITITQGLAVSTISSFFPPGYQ
T5 sequence (P08637 17-208): as the sequence (P08637 17-208 F176V limits assumed) above, with V160F counted along it
T7 sequence (P12314 16-288 limits assumed): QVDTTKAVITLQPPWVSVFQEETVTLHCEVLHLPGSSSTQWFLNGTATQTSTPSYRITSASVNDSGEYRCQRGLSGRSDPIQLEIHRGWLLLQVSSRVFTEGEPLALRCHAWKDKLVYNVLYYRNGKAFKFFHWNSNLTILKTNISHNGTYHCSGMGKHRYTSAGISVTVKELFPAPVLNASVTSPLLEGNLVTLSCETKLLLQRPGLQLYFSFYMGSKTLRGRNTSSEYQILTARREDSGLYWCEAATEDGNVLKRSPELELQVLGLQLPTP

Binder	Kd [1]	koff [2]	kon [2]	binding result [3]	binding result [4]	binding result [5]	binding result [6]	binding result [7]	binding result [8]	binding result [9]
B1	375 nM	0.0539 s⁻¹	143000 M⁻¹ s⁻¹	no binding (tested: 10,000 nM (highest concentration tested))	no binding (tested: 10,000 nM (highest concentration tested))	no binding (tested: 10,000 nM (highest concentration tested))	no binding (tested: 10,000 nM (highest concentration tested))	no binding (tested: 10,000 nM (highest concentration tested))	no binding (tested: 3,000 nM (highest concentration tested))	
B2										no binding (tested: up to 30 µg/mL)
B3										no binding (tested: up to 30 µg/mL)
B4	230 nM	0.0413 s⁻¹	180000 M⁻¹ s⁻¹	no binding (tested: 10,000 nM (highest concentration tested))	no binding (tested: 10,000 nM (highest concentration tested))	no binding (tested: 10,000 nM (highest concentration tested))	no binding (tested: 10,000 nM (highest concentration tested))	no binding (tested: 10,000 nM (highest concentration tested))	no binding (tested: 3,000 nM (highest concentration tested))	

Source: patent publication US20230295335A1 (published 2023)
